Results on 1 substance are retold here after patent US20240409647A1, “BISPECIFIC BINDING PROTEINS AGAINST ALARMINS AND USES THEREOF” (SINOMAB BIOSCIENCE LIMITED, priority 2022, published 2024).

Values joined by “and” are separate entries in the source; they are usually repeats but may differ in a detail not shown here. Identical values can stand only once.

One assay has as its target T1, IL-17RB (Homo sapiens, UniProt Q9NRM6).
T1 construct: purchased R&D systems
T1 sequence (Q9NRM6 18-502): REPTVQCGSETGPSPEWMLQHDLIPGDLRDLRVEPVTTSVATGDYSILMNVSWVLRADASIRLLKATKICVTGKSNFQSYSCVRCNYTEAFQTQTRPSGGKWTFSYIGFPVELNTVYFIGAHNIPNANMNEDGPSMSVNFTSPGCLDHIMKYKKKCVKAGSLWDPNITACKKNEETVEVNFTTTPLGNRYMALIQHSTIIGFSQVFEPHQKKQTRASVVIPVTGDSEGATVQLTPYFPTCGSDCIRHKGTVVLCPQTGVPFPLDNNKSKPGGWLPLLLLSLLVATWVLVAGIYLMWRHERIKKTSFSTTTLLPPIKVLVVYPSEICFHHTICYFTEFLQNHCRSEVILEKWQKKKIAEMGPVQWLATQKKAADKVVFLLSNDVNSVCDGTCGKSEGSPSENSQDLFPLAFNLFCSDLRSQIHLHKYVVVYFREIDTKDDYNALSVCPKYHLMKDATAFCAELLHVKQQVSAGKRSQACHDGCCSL
Put plainly: ELISA, SM17 binding to coated IL-17RB protein (human). The settings on record: two wells. On the procedure: A standard enzyme-linked immunosorbent assay (ELISA) method was used to determine the species specificity of SM17 against IL-17RB proteins. Briefly, IL-17RB proteins from human, mouse, cynomolgus or rhesus monkey (R&D systems, Minneapolis, MN) were diluted to 2.5 μg/ml in PBS and 50 μl of IL-17RB proteins were added to each well of ELISA strip. The strips were sealed with parafilm and incubated at 4° C. overnight for coating.
On the next day, strips were washed thrice with washing buffer (0.05% Tween 20 in PBS) and blocked with 100 μl per well with blocking buffer (3% BSA in PBS) for 2 hours RT before serially diluted SM17 (at a final concentration of 10, 2, 0.4, 0.08, 0.016, 0.0032, and 0.00064 μg/ml, respectively) was added.
Background: An ELISA detects its analyte on a solid surface through an enzyme-linked reagent.

The target of the next assay is T2, hIL 17RD (Homo sapiens, UniProt Q8NFM7).
T2 construct: purchased R&D systems
T2 sequence (Q8NFM7 17-739): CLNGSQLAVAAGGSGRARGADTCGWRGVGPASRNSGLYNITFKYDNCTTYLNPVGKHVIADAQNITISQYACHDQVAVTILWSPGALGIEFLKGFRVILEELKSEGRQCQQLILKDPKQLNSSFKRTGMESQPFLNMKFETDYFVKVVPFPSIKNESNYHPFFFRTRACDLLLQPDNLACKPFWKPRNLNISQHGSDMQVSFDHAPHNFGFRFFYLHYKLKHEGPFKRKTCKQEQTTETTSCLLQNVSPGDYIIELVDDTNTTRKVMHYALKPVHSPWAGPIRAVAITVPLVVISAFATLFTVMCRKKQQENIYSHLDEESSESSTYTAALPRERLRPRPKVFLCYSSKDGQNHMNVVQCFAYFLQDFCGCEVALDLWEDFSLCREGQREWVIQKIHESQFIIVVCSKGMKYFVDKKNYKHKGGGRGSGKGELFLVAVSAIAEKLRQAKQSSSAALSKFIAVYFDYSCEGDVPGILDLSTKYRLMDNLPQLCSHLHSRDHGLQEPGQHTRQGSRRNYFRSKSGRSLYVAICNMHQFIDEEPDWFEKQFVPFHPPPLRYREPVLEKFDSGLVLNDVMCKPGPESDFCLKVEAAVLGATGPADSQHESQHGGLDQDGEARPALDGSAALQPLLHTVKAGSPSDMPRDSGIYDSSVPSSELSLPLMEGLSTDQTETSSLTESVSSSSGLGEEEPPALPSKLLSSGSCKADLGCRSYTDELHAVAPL
The assay is described as follows: ELISA, SM17 specificity against IL-17 receptor subunits (IL17RD). To be noted: 0.4 to 0.00064 μg/mL. Type of assay: binding. On the procedure: A standard ELISA method was used to determine the specificity of SM17 against other human IL17 receptor subunits. Similarly, serially diluted SM17 at different concentrations (final concentrations at 0.4, 0.08, 0.016, 0.0032 and 0.00064 μg/m, respectively) was added to the wells of ELISA plates coated either with human IL-17 receptor subunits A, C, D and E (IL17RA, IL17RC, IL17RD, and IL17RE) (R&D systems).

Another assay has as its system wild type HEK293. The assay is described as follows: Flow cytometry, SM17 binding to wild type HEK293. To be noted: SM17 1 μg/ml. How it is done:
HEK293 cells (ATCC, Manassas, VA) transfected either with full-length human or rhesus monkey IL-17RB (SinoBiological, Beijing, China) were examined for binding to SM17 following standard protocol for flow cytometry. Wild-type HEK293 stained with IgG4 isotype control (Sino Biological) was used as the negative control and for gating purpose. Briefly, HEK293 cells at a density of 3×10^5 cells were seeded into each well of a 6-well plate. On the next day, human or rhesus Il-17RB full length cDNA were first cloned into pCMV3-untagged expression plasmid through standard molecular cloning technique, and then expression plasmids for human or rhesus IL-17RB were transfected into HEK293 cells by lipofection (Lipofectamine 3000 reagent; Thermo Fisher Scientific). Transfected cells were trypsinized, harvested, and fixed with 4% paraformaldehyde (5 minutes). SM17, or human IgG4 control at 1 μg/ml in washing buffer (3% BSA in PBS) were added to the resuspend cells for incubation at RT for 30 min before Alexa Fluor® 647-conjugated goat anti-human IgG specific antibody (1:2000 dilution in washing buffer) (Jackson ImmunoResearch) was added for flow cytometry analysis using the BD FACSVerse cell analyzer (Becton Dickenson, Franklin Lakes, NJ).

In assay [1] the test system is Human renal carcinoma cell line TK-10. Put plainly: IL-8 release from IL-25/TNFa-treated TK-10 cells. Type of assay: cell-based. To be noted: 1 mg/mL; 100 ng/mL IL-25, 10 ng/mL TNFa; 24 or 48 hours. On the procedure:
Human renal carcinoma cell line TK-10 (NCI-60, NIH, Bethesda, MD) treated with human IL-25 (PeproTech) and TNFa (R&D systems) can lead to the release of IL-8, also known as neutrophil chemotactic factor, an important mediator of the immune reaction in the innate immune system response. Accordingly, the inhibitory effects of SM17 and its murine counterpart (D9.2) on IL-8 release from IL-25/TNFa-treated TK-10 cells was evaluated. Briefly, SM17 (human IgG4 isotype, SinoMab BioScience Limited, Hong Kong, China), SM17-IgG1 (human IgG1 isotype, SinoMab BioScience Limited) and its murine counterpart (D9.2, SinoMab BioScience Limited) at a concentration of 1 mg/mL were added to 2×10^4 of TK-10 cells in the presence of 100 ng/mL of IL-25 and 10 ng/mL of TNFa. Non-specific human IgG1 (SM03, anti-CD22 chimeric antibody, SinoMab BioScience Limited) was used as the control antibody. Treated cells were cultured in OptiMEM (Thermo Fisher Scientific) for 24 or 48 hours at 37° C., and the level of IL-8 release in the culture supernatant was measured by standard ELISA assay using a commercial kit (R&D systems).

In the case of “SM17: humanized anti-IL17RB monoclonal antibody, human IgG4 isotype; HC SEQ ID NO: 32, LC SEQ ID NO: 33”, the “OD 450 nm Absorption, human IL17RB” value was 0.17 with IL-17RB (SM17 0.016 μg/mL); 0.58 and 0.44 with IL-17RB (SM17 0.08 μg/mL); 1.10 and 1.14 with IL-17RB (SM17 0.4 μg/mL); 1.74 and 1.61 with IL-17RB (SM17 2 μg/mL); 1.82 and 1.88 in the assay with IL-17RB (SM17 10 μg/mL). Also, the “binding of SM17 to IL17RD (in words)” value with hIL 17RD is given as “No obvious bindings”. Moreover, the “binding of SM17 to wild type HEK293” value in the assay on wild type HEK293 is ~7%. Further, in assay [1], the “release of IL-8 by IL-25/TNFa-induced TK-10 cells (in words)” value is listed as “efficiently suppress the release of IL-8”.
